Results published in paper PMC10786891, “Massively parallel profiling of RNA-targeting CRISPR-Cas13d”.

T1: EsCas13d, nuclease-dead (Eubacterium siraeum, UniProt B0MS50, R295A;H300A;R849A;H854A)
T1 sequence: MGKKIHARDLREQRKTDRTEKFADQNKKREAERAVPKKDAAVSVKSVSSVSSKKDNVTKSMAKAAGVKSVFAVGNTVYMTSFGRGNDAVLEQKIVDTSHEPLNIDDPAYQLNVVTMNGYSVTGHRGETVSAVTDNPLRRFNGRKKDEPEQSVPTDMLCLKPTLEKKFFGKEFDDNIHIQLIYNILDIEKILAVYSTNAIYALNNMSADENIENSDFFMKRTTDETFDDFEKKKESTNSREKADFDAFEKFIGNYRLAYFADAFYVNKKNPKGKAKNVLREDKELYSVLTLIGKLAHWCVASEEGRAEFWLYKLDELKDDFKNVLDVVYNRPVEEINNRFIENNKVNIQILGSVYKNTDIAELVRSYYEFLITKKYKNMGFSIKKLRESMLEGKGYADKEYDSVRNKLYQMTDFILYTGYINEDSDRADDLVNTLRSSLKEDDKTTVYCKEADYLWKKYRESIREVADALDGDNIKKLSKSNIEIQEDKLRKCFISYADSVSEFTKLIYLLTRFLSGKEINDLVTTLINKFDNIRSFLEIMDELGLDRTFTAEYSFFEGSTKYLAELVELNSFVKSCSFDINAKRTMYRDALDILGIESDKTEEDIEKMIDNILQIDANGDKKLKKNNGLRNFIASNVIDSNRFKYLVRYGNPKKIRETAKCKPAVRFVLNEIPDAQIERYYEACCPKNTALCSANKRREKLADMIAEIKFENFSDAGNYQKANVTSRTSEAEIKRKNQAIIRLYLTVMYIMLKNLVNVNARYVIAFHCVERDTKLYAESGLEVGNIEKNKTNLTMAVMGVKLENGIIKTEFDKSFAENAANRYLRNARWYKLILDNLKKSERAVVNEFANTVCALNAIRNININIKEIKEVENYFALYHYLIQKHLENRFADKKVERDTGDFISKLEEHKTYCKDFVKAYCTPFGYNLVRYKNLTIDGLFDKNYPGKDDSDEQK

B1: target 1 insG 3' of 10,insG 3' of 8 (mixed)
RNA 1: CACCCGUGCAAAAAUGCAGGGGUCUAAAACUGAGCGGAUAACCUCUCUAUGG
RNA 2: GGGAAUGGAUCCACAUCUACGAAUUCGUACCAUAGAGAGGUUGAUGCCGCUCACCGAGAUCGGAAGAGCACACGU
B2: target 1 insG 3' of 14,insC 3' of 5 (mixed)
RNA 1: CACCCGUGCAAAAAUGCAGGGGUCUAAAACUGAGCGGAUAACCUCUCUAUGG
RNA 2: GGGAAUGGAUCCACAUCUACGAAUUCGUACCAUAGAGAGGGUUAUCCGCCUCACCGAGAUCGGAAGAGCACACGU
B3: target 1 C2U,C21A (mixed)
RNA 1: CACCCGUGCAAAAAUGCAGGGGUCUAAAACUGAGCGGAUAACCUCUCUAUGG
RNA 2: GGGAAUGGAUCCACAUCUACGAAUUCGUACAAUAGAGAGGUUAUCCGCUUACCGAGAUCGGAAGAGCACACGU
B4: target 1 insU 3' of 13,insU 3' of 7 (mixed)
RNA 1: CACCCGUGCAAAAAUGCAGGGGUCUAAAACUGAGCGGAUAACCUCUCUAUGG
RNA 2: GGGAAUGGAUCCACAUCUACGAAUUCGUACCAUAGAGAGUGUUAUCUCGCUCACCGAGAUCGGAAGAGCACACGU
B5: target 1 insA 3' of 19,insA 3' of 4 (mixed)
RNA 1: CACCCGUGCAAAAAUGCAGGGGUCUAAAACUGAGCGGAUAACCUCUCUAUGG
RNA 2: GGGAAUGGAUCCACAUCUACGAAUUCGUACCAUAAGAGAGGUUAUCCGCAUCACCGAGAUCGGAAGAGCACACGU
B6: target 1 insC 3' of 19,insC 3' of 13 (mixed)
RNA 1: CACCCGUGCAAAAAUGCAGGGGUCUAAAACUGAGCGGAUAACCUCUCUAUGG
RNA 2: GGGAAUGGAUCCACAUCUACGAAUUCGUACCAUCAGAGAGCGUUAUCCGCUCACCGAGAUCGGAAGAGCACACGU
B7: target 1 C4G,A14G (mixed)
RNA 1: CACCCGUGCAAAAAUGCAGGGGUCUAAAACUGAGCGGAUAACCUCUCUAUGG
RNA 2: GGGAAUGGAUCCACAUCUACGAAUUCGUACCAUAGAGGGGUUAUCCGGUCACCGAGAUCGGAAGAGCACACGU
B8: target 1 U11G,C22A (mixed)
RNA 1: CACCCGUGCAAAAAUGCAGGGGUCUAAAACUGAGCGGAUAACCUCUCUAUGG
RNA 2: GGGAAUGGAUCCACAUCUACGAAUUCGUAACAUAGAGAGGGUAUCCGCUCACCGAGAUCGGAAGAGCACACGU
B9: target 1 insG 3' of 6,insG 3' of 4 (mixed)
RNA 1: CACCCGUGCAAAAAUGCAGGGGUCUAAAACUGAGCGGAUAACCUCUCUAUGG
RNA 2: GGGAAUGGAUCCACAUCUACGAAUUCGUACCAUAGAGAGGUUAUCCGGCGUCACCGAGAUCGGAAGAGCACACGU
B10: target 1 C2A,C6A (mixed)
RNA 1: CACCCGUGCAAAAAUGCAGGGGUCUAAAACUGAGCGGAUAACCUCUCUAUGG
RNA 2: GGGAAUGGAUCCACAUCUACGAAUUCGUACCAUAGAGAGGUUAUCAGCUAACCGAGAUCGGAAGAGCACACGU
B11: target 1 C7A,A16C (mixed)
RNA 1: CACCCGUGCAAAAAUGCAGGGGUCUAAAACUGAGCGGAUAACCUCUCUAUGG
RNA 2: GGGAAUGGAUCCACAUCUACGAAUUCGUACCAUAGCGAGGUUAUACGCUCACCGAGAUCGGAAGAGCACACGU
B12: target 1 U11C,G15A (mixed)
RNA 1: CACCCGUGCAAAAAUGCAGGGGUCUAAAACUGAGCGGAUAACCUCUCUAUGG
RNA 2: GGGAAUGGAUCCACAUCUACGAAUUCGUACCAUAGAAAGGCUAUCCGCUCACCGAGAUCGGAAGAGCACACGU
B13: target 1 insG 3' of 8,insG 3' of 2 (mixed)
RNA 1: CACCCGUGCAAAAAUGCAGGGGUCUAAAACUGAGCGGAUAACCUCUCUAUGG
RNA 2: GGGAAUGGAUCCACAUCUACGAAUUCGUACCAUAGAGAGGUUAUGCCGCUCGACCGAGAUCGGAAGAGCACACGU
B14: target 1 insG 3' of 19,insA 3' of 7 (mixed)
RNA 1: CACCCGUGCAAAAAUGCAGGGGUCUAAAACUGAGCGGAUAACCUCUCUAUGG
RNA 2: GGGAAUGGAUCCACAUCUACGAAUUCGUACCAUGAGAGAGGUUAUCACGCUCACCGAGAUCGGAAGAGCACACGU
B15: target 1 C6A,U19G (mixed)
RNA 1: CACCCGUGCAAAAAUGCAGGGGUCUAAAACUGAGCGGAUAACCUCUCUAUGG
RNA 2: GGGAAUGGAUCCACAUCUACGAAUUCGUACCAGAGAGAGGUUAUCAGCUCACCGAGAUCGGAAGAGCACACGU
B16: target 1 U3A,U11G (mixed)
RNA 1: CACCCGUGCAAAAAUGCAGGGGUCUAAAACUGAGCGGAUAACCUCUCUAUGG
RNA 2: GGGAAUGGAUCCACAUCUACGAAUUCGUACCAUAGAGAGGGUAUCCGCACACCGAGAUCGGAAGAGCACACGU
B17: target 1 insU 3' of 13 (mixed)
RNA 1: CACCCGUGCAAAAAUGCAGGGGUCUAAAACUGAGCGGAUAACCUCUCUAUGG
RNA 2: GGGAAUGGAUCCACAUCUACGAAUUCGUACCAUAGAGAGUGUUAUCCGCUCACCGAGAUCGGAAGAGCACACGU
B18: target 1 insC 3' of 14,insA 3' of 7 (mixed)
RNA 1: CACCCGUGCAAAAAUGCAGGGGUCUAAAACUGAGCGGAUAACCUCUCUAUGG
RNA 2: GGGAAUGGAUCCACAUCUACGAAUUCGUACCAUAGAGACGGUUAUCACGCUCACCGAGAUCGGAAGAGCACACGU
B19: target 1 insA 3' of 3,insC 3' of 1 (mixed)
RNA 1: CACCCGUGCAAAAAUGCAGGGGUCUAAAACUGAGCGGAUAACCUCUCUAUGG
RNA 2: GGGAAUGGAUCCACAUCUACGAAUUCGUACCAUAGAGAGGUUAUCCGCUACACCCGAGAUCGGAAGAGCACACGU
B20: target 1 insG 3' of 9,insC 3' of 1 (mixed)
RNA 1: CACCCGUGCAAAAAUGCAGGGGUCUAAAACUGAGCGGAUAACCUCUCUAUGG
RNA 2: GGGAAUGGAUCCACAUCUACGAAUUCGUACCAUAGAGAGGUUAGUCCGCUCACCCGAGAUCGGAAGAGCACACGU
B21: target 1 insC 3' of 18,insG 3' of 7 (mixed)
RNA 1: CACCCGUGCAAAAAUGCAGGGGUCUAAAACUGAGCGGAUAACCUCUCUAUGG
RNA 2: GGGAAUGGAUCCACAUCUACGAAUUCGUACCAUACGAGAGGUUAUCGCGCUCACCGAGAUCGGAAGAGCACACGU
B22: target 1 G13C,C22U (mixed)
RNA 1: CACCCGUGCAAAAAUGCAGGGGUCUAAAACUGAGCGGAUAACCUCUCUAUGG
RNA 2: GGGAAUGGAUCCACAUCUACGAAUUCGUAUCAUAGAGACGUUAUCCGCUCACCGAGAUCGGAAGAGCACACGU
B23: target 1 C7G,U8G (mixed)
RNA 1: CACCCGUGCAAAAAUGCAGGGGUCUAAAACUGAGCGGAUAACCUCUCUAUGG
RNA 2: GGGAAUGGAUCCACAUCUACGAAUUCGUACCAUAGAGAGGUUAGGCGCUCACCGAGAUCGGAAGAGCACACGU
B24: target 1 complement block 14-16 (mixed)
RNA 1: CACCCGUGCAAAAAUGCAGGGGUCUAAAACUGAGCGGAUAACCUCUCUAUGG
RNA 2: GGGAAUGGAUCCACAUCUACGAAUUCGUACCAUAGUCUGGUUAUCCGCUCACCGAGAUCGGAAGAGCACACGU
B25: target 1 insU 3' of 17,insA 3' of 12 (mixed)
RNA 1: CACCCGUGCAAAAAUGCAGGGGUCUAAAACUGAGCGGAUAACCUCUCUAUGG
RNA 2: GGGAAUGGAUCCACAUCUACGAAUUCGUACCAUAGUAGAGGAUUAUCCGCUCACCGAGAUCGGAAGAGCACACGU
B26: target 1 insA 3' of 3,insG 3' of 1 (mixed)
RNA 1: CACCCGUGCAAAAAUGCAGGGGUCUAAAACUGAGCGGAUAACCUCUCUAUGG
RNA 2: GGGAAUGGAUCCACAUCUACGAAUUCGUACCAUAGAGAGGUUAUCCGCUACAGCCGAGAUCGGAAGAGCACACGU
B27: target 1 insA 3' of 7 (mixed)
RNA 1: CACCCGUGCAAAAAUGCAGGGGUCUAAAACUGAGCGGAUAACCUCUCUAUGG
RNA 2: GGGAAUGGAUCCACAUCUACGAAUUCGUACCAUAGAGAGGUUAUCACGCUCACCGAGAUCGGAAGAGCACACGU
B28: target 1 insA 3' of 22,insA 3' of 8 (mixed)
RNA 1: CACCCGUGCAAAAAUGCAGGGGUCUAAAACUGAGCGGAUAACCUCUCUAUGG
RNA 2: GGGAAUGGAUCCACAUCUACGAAUUCGUACACAUAGAGAGGUUAUACCGCUCACCGAGAUCGGAAGAGCACACGU

molecular target: T1, EsCas13d, nuclease-dead; assay: crRNA (strand 1, pre-loaded); Mg2+; 40 mM Tris-HCl pH 7.5, 150 mM NaCl, 6 mM MgCl2, 1 mM DTT, 0.1% Tween-20, 0.2 mg/ml BSA; 25 C; 10 min per concentration, then washed; conditions: tags: His6-TwinStrep-SUMO cleaved; N-terminal SNAP kept (SNAP-Surface 488); label: 3' end held by stalled T7 RNA polymerase

Going from B1 to B2, the Kd falls from 21.8 ± 0.7 nM to 12.1 ± 1 nM (1.8-fold).

Compared with B3, B4 is 2.1-fold lower in Kd: 28.1 ± 3.1 nM for the first, 13.7 ± 0.8 nM for the second. The second binds more tightly here.

Going from B5 to B6, the Kd rises from 16 ± 1.3 nM to 49 ± 15 nM (3.1-fold). The first binds more tightly here.

First: B7
Second: B8
The Kd of the first is 3-fold lower: 13.2 ± 1.2 nM for the first, 39 ± 8 nM for the second. The first binds more tightly here.

Compared with B9, B10 is 1.7-fold lower in Kd: 8 ± 0.4 nM for the first, 4.84 ± 0.28 nM for the second. The second binds more tightly here.

First: B11
Second: B12
The Kd of the first is 2.1-fold higher: 56.1 ± 2.7 nM for the first, 27 ± 3.3 nM for the second. The second binds more tightly here.

Compared with B13, B14 is 2.8-fold higher in Kd: 13.1 ± 0.6 nM for the first, 36.7 ± 2.9 nM for the second.

Compared with B15, B16 is 3.8-fold lower in Kd: 46 ± 4 nM for the first, 12.2 ± 0.7 nM for the second.

Compared with B17, B18 is 4.1-fold higher in Kd: 11.4 ± 1.5 nM for the first, 47 ± 10 nM for the second. The first binds more tightly here.

B19 and B20 are within 1.5-fold of each other in Kd: 23 ± 4 nM for the first, 17.4 ± 1.2 nM for the second.

Going from B21 to B22, the Kd rises from 36.8 ± 2.2 nM to 62 ± 19 nM (1.7-fold).

Going from B23 to B24, the Kd rises from 11.5 ± 0.9 nM to 61 ± 9 nM (5.3-fold).

Going from B25 to B26, the Kd falls from 37 ± 6 nM to 5.69 ± 0.25 nM (6.5-fold).

Going from B27 to B28, the Kd rises from 5.49 ± 0.21 nM to 20.9 ± 1.3 nM (3.8-fold). The first binds more tightly here.
